Results: patent US20140087995A1 (published 2014)
Values belong to the binder of their own block, whether it stands above or below them. Numbered stars: 1 amine (or outer) side, 2 acyl side, 3 side chain; on linkers, the order of the positions; unused ones are H or OH. Bridge positions count the residues as written; N and C are the ends. Side chains are listed from the residue outwards. Ends that are not written are not given here. * marks the point of attachment. C20 diacid = O=C(O)CCCCCCCCCCCCCCCCCCC(=O)*; γGlu = O=C(O)[C@H](CCC(=O)[*:2])N[*:1]; AEEA = NCCOCCOCC(=O)O

Tests used:
[1] = target: T1, human amylin receptor (amylin 3(a) receptor: human calcitonin receptor with RAMP-3) (human, UniProt P30988 25-474; O60896 24-148, limits assumed); assay: SPA competition binding on membranes of BHK cells with human calcitonin receptor + RAMP-3; displacement of 125I-rat amylin (Assay V)
T1 construct: whole, on cells; Whole cells in the luciferase assay (Assay II a); also called hAmylin-R; hAmylinR
T1 sequence (looked up) 1: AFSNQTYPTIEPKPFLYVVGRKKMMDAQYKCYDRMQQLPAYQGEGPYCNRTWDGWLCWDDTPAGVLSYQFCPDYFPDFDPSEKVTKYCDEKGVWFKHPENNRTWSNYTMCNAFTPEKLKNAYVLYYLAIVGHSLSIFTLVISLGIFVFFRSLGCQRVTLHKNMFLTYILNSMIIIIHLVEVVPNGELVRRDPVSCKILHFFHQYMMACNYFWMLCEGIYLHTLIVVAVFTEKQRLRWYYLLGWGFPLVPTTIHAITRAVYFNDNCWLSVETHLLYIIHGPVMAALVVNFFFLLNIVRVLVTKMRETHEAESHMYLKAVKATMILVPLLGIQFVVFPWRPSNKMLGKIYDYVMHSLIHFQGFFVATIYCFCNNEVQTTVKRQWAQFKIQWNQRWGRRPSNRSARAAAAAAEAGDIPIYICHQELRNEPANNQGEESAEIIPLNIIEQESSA
T1 sequence (looked up) 2: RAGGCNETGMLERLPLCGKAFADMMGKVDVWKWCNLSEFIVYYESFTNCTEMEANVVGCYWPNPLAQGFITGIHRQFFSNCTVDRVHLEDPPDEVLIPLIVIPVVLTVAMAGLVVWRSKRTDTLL
Experimental: The binding assay was performed using scintillation proximity assay (SPA) beads (RPNQ0001) from PerkinElmer and cell membranes from the Amylin 3(a)/CRE-luc cells (as described in Assay (II)) were used. Membranes were prepared in the following way; the cells were rinsed with PBS and incubated with Versene for approximately 5 min before harvesting. The cells were flushed with PBS and the cell-suspension was centrifuged for 5 min at 1000 rpm. Cells were homogenized (ultrathurrax) in a buffer containing 20 mM Na-HEPES and 10 mM EDTA (pH 7.4) and centrifuged at 20.000 rpm for 15 min. The resulting pellet was resuspended, homogenized and centrifuged (20.000 rpm, 15 min) in a buffer containing 20 mM Na-HEPES and 0.1 mM EDTA (pH 7.4, buffer 2). The resulting pellet was resuspended in buffer 2 and protein concentration was measured (BCA protein Assay, Pierce). The homogenate was kept cold during the whole procedure. The membranes were kept at −80° C. until use. The assay was performed in a 384 well Optiplate (PerkinElmer) in a total volume of 40 ul. Membranes were mixed with SPA beads. Final concentration of membranes 35 ng/μL final and SPA beads was 0.05 mg/well. Test-compounds were dissolved in DMSO and further diluted in assay buffer (50 mM Hepes, pH 7.4, 1 mM CaCl2, 5 mM MgCl₂, 0.1% OA and 0.02% Tween20). […] The final mixture was incubated with shaking at 400 rpm for 120 min at 25° C. prior to centrifugation (1500 rpm, 10 min). Samples were analyzed on TopCounter™ (Packard). The IC₅₀ was calculated using (one site binding competition analysis) GraphPad Prism5 as a measure of receptor affinity.

[2] = target: T2, human calcitonin receptor (human, UniProt P30988 25-474); assay: cell-based or functional assay
T2 sequence (looked up): T1 sequence (looked up) 1

[3] = target: T3, human calcitonin receptor (human, UniProt P30988 25-474); assay: SPA competition against 125I-calcitonin, membranes of BHK cells with human calcitonin receptor (Assay VII)
T3 construct: whole, on cells; Membranes of BHK cells stably transfected with the human calcitonin receptor (Assay VII); also called hCTR; hCT
T3 sequence (looked up): T1 sequence (looked up) 1
In short: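 BHK hCTR membranes 35 ng/μL + SPA beads 0.05 mg/well; buffer 50 mM Hepes pH 7.4, 1 mM CaCl2, 5 mM MgCl₂, 0.1% OA, 0.02% Tween20. 120 min, 25° C., shaking. Scintillation count; IC50 by one-site binding competition.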

[4] = target: T3, human calcitonin receptor; assay: ratio of IC50 at hCTR over IC50 at hAmylin-R (SPA competition assays)
In short: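 Competition binding by SPA uses membrane preparations (35 ng/μL final) in pH 7.4 Hepes buffer with 1 mM CaCl2 and 5 mM MgCl₂. Incubation lasts 120 min at 25° C, and IC₅₀ comes from one-site fitting.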

IC50 [1]: 0.249 nM
B1: N^ε1-[2-[2-[2-[[(4S)-4-carboxy-4-(19-carboxynonadecanoylamino)butanoyl]amino]ethoxy]ethoxy]acetyl]-[Arg17,Pro21,Pro27,Arg35]-h-amylin (peptide)
peptide: K([AEEA-γGlu-C20 diacid])CNTATCATQRLANFLRHSSPNFGAIPSSTNVGSRTY-NH2
modifications: disulfide 2-7; N-terminus assumed
SMILES: CC[C@H](C)[C@H](NC(=O)[C@H](C)NC(=O)CNC(=O)[C@H](Cc1ccccc1)NC(=O)[C@H](CC(N)=O)NC(=O)[C@@H]1CCCN1C(=O)[C@H](CO)NC(=O)[C@H](CO)NC(=O)[C@H](Cc1c[nH]cn1)NC(=O)[C@H](CCCNC(=N)N)NC(=O)[C@H](CC(C)C)NC(=O)[C@H](Cc1ccccc1)NC(=O)[C@H](CC(N)=O)NC(=O)[C@H](C)NC(=O)[C@H](CC(C)C)NC(=O)[C@H](CCCNC(=N)N)NC(=O)[C@H](CCC(N)=O)NC(=O)[C@@H](NC(=O)[C@H](C)NC(=O)[C@@H]1CSSC[C@H](NC(=O)[C@@H](N)CCCCNC(=O)COCCOCCNC(=O)CC[C@H](NC(=O)CCCCCCCCCCCCCCCCCCC(=O)O)C(=O)O)C(=O)N[C@@H](CC(N)=O)C(=O)N[C@@H]([C@@H](C)O)C(=O)N[C@@H](C)C(=O)N[C@@H]([C@@H](C)O)C(=O)N1)[C@@H](C)O)C(=O)N1CCC[C@H]1C(=O)N[C@@H](CO)C(=O)N[C@@H](CO)C(=O)N[C@H](C(=O)N[C@@H](CC(N)=O)C(=O)N[C@H](C(=O)NCC(=O)N[C@@H](CO)C(=O)N[C@@H](CCCNC(=N)N)C(=O)N[C@H](C(=O)N[C@@H](Cc1ccc(O)cc1)C(N)=O)[C@@H](C)O)C(C)C)[C@@H](C)O
notes: also called compound 38

hCTR funct. EC50 (pM) [2]: 2360 pM
B2: N^ε1-[(4S)-4-carboxy-4-[[(4S)-4-carboxy-4-(19-carboxynonadecanoylamino)butanoyl]amino]butanoyl]-[Glu14,Arg17,Pro21,Pro27,Pro34,Glu35]-h-amylin (peptide)
peptide: K([γGlu-γGlu-C20 diacid])CNTATCATQRLAEFLRHSSPNFGAIPSSTNVGPETY-NH2
modifications: disulfide 2-7; N-terminus assumed
SMILES: CC[C@H](C)[C@H](NC(=O)[C@H](C)NC(=O)CNC(=O)[C@H](Cc1ccccc1)NC(=O)[C@H](CC(N)=O)NC(=O)[C@@H]1CCCN1C(=O)[C@H](CO)NC(=O)[C@H](CO)NC(=O)[C@H](Cc1c[nH]cn1)NC(=O)[C@H](CCCNC(=N)N)NC(=O)[C@H](CC(C)C)NC(=O)[C@H](Cc1ccccc1)NC(=O)[C@H](CCC(=O)O)NC(=O)[C@H](C)NC(=O)[C@H](CC(C)C)NC(=O)[C@H](CCCNC(=N)N)NC(=O)[C@H](CCC(N)=O)NC(=O)[C@@H](NC(=O)[C@H](C)NC(=O)[C@@H]1CSSC[C@H](NC(=O)[C@@H](N)CCCCNC(=O)CC[C@H](NC(=O)CC[C@H](NC(=O)CCCCCCCCCCCCCCCCCCC(=O)O)C(=O)O)C(=O)O)C(=O)N[C@@H](CC(N)=O)C(=O)N[C@@H]([C@@H](C)O)C(=O)N[C@@H](C)C(=O)N[C@@H]([C@@H](C)O)C(=O)N1)[C@@H](C)O)C(=O)N1CCC[C@H]1C(=O)N[C@@H](CO)C(=O)N[C@@H](CO)C(=O)N[C@H](C(=O)N[C@@H](CC(N)=O)C(=O)N[C@H](C(=O)NCC(=O)N1CCC[C@H]1C(=O)N[C@@H](CCC(=O)O)C(=O)N[C@H](C(=O)N[C@@H](Cc1ccc(O)cc1)C(N)=O)[C@@H](C)O)C(C)C)[C@@H](C)O
notes: synthetic peptide amide

IC50 [3]: 9.29 nM | Ratio hCT/hAmylin binding [4]: 7.8
B3: N^ε1-[(4S)-4-carboxy-4-[[(4S)-4-carboxy-4-(19-carboxynonadecanoylamino)butanoyl]amino]butanoyl]-[Glu14,Arg17,Pro23,Pro34,Glu35]-h-amylin (peptide)
peptide: K([γGlu-γGlu-C20 diacid])CNTATCATQRLAEFLRHSSNNPGAILSSTNVGPETY-NH2
modifications: disulfide 2-7; N-terminus assumed
SMILES: CC[C@H](C)[C@H](NC(=O)[C@H](C)NC(=O)CNC(=O)[C@@H]1CCCN1C(=O)[C@H](CC(N)=O)NC(=O)[C@H](CC(N)=O)NC(=O)[C@H](CO)NC(=O)[C@H](CO)NC(=O)[C@H](Cc1c[nH]cn1)NC(=O)[C@H](CCCNC(=N)N)NC(=O)[C@H](CC(C)C)NC(=O)[C@H](Cc1ccccc1)NC(=O)[C@H](CCC(=O)O)NC(=O)[C@H](C)NC(=O)[C@H](CC(C)C)NC(=O)[C@H](CCCNC(=N)N)NC(=O)[C@H](CCC(N)=O)NC(=O)[C@@H](NC(=O)[C@H](C)NC(=O)[C@@H]1CSSC[C@H](NC(=O)[C@@H](N)CCCCNC(=O)CC[C@H](NC(=O)CC[C@H](NC(=O)CCCCCCCCCCCCCCCCCCC(=O)O)C(=O)O)C(=O)O)C(=O)N[C@@H](CC(N)=O)C(=O)N[C@@H]([C@@H](C)O)C(=O)N[C@@H](C)C(=O)N[C@@H]([C@@H](C)O)C(=O)N1)[C@@H](C)O)C(=O)N[C@@H](CC(C)C)C(=O)N[C@@H](CO)C(=O)N[C@@H](CO)C(=O)N[C@H](C(=O)N[C@@H](CC(N)=O)C(=O)N[C@H](C(=O)NCC(=O)N1CCC[C@H]1C(=O)N[C@@H](CCC(=O)O)C(=O)N[C@H](C(=O)N[C@@H](Cc1ccc(O)cc1)C(N)=O)[C@@H](C)O)C(C)C)[C@@H](C)O

IC50 [3]: 3.44 nM | Ratio hCT/hAmylin binding [4]: 45.3
B4: N^ε1-[(4S)-4-carboxy-4-[[(4S)-4-carboxy-4-(19-carboxynonadecanoylamino)butanoyl]amino]butanoyl]-[Ser14,Arg17,Pro21,Pro27,Pro34,Glu35]-h-amylin (peptide)
peptide: K([γGlu-γGlu-C20 diacid])CNTATCATQRLASFLRHSSPNFGAIPSSTNVGPETY-NH2
modifications: disulfide 2-7; N-terminus assumed
SMILES: CC[C@H](C)[C@H](NC(=O)[C@H](C)NC(=O)CNC(=O)[C@H](Cc1ccccc1)NC(=O)[C@H](CC(N)=O)NC(=O)[C@@H]1CCCN1C(=O)[C@H](CO)NC(=O)[C@H](CO)NC(=O)[C@H](Cc1c[nH]cn1)NC(=O)[C@H](CCCNC(=N)N)NC(=O)[C@H](CC(C)C)NC(=O)[C@H](Cc1ccccc1)NC(=O)[C@H](CO)NC(=O)[C@H](C)NC(=O)[C@H](CC(C)C)NC(=O)[C@H](CCCNC(=N)N)NC(=O)[C@H](CCC(N)=O)NC(=O)[C@@H](NC(=O)[C@H](C)NC(=O)[C@@H]1CSSC[C@H](NC(=O)[C@@H](N)CCCCNC(=O)CC[C@H](NC(=O)CC[C@H](NC(=O)CCCCCCCCCCCCCCCCCCC(=O)O)C(=O)O)C(=O)O)C(=O)N[C@@H](CC(N)=O)C(=O)N[C@@H]([C@@H](C)O)C(=O)N[C@@H](C)C(=O)N[C@@H]([C@@H](C)O)C(=O)N1)[C@@H](C)O)C(=O)N1CCC[C@H]1C(=O)N[C@@H](CO)C(=O)N[C@@H](CO)C(=O)N[C@H](C(=O)N[C@@H](CC(N)=O)C(=O)N[C@H](C(=O)NCC(=O)N1CCC[C@H]1C(=O)N[C@@H](CCC(=O)O)C(=O)N[C@H](C(=O)N[C@@H](Cc1ccc(O)cc1)C(N)=O)[C@@H](C)O)C(C)C)[C@@H](C)O
notes: also called compound 120

IC50 [3]: 1.86 nM | Ratio hCT/hAmylin binding [4]: 13.3
B5: N^ε1-[(4S)-4-carboxy-4-(19-carboxynonadecanoylamino)butanoyl]-[Glu14,Arg17,Pro21,Pro27,Pro34,Glu35]-h-amylin (peptide)
peptide: K([γGlu-C20 diacid])CNTATCATQRLAEFLRHSSPNFGAIPSSTNVGPETY-NH2
modifications: disulfide 2-7; N-terminus assumed
SMILES: CC[C@H](C)[C@H](NC(=O)[C@H](C)NC(=O)CNC(=O)[C@H](Cc1ccccc1)NC(=O)[C@H](CC(N)=O)NC(=O)[C@@H]1CCCN1C(=O)[C@H](CO)NC(=O)[C@H](CO)NC(=O)[C@H](Cc1c[nH]cn1)NC(=O)[C@H](CCCNC(=N)N)NC(=O)[C@H](CC(C)C)NC(=O)[C@H](Cc1ccccc1)NC(=O)[C@H](CCC(=O)O)NC(=O)[C@H](C)NC(=O)[C@H](CC(C)C)NC(=O)[C@H](CCCNC(=N)N)NC(=O)[C@H](CCC(N)=O)NC(=O)[C@@H](NC(=O)[C@H](C)NC(=O)[C@@H]1CSSC[C@H](NC(=O)[C@@H](N)CCCCNC(=O)CC[C@H](NC(=O)CCCCCCCCCCCCCCCCCCC(=O)O)C(=O)O)C(=O)N[C@@H](CC(N)=O)C(=O)N[C@@H]([C@@H](C)O)C(=O)N[C@@H](C)C(=O)N[C@@H]([C@@H](C)O)C(=O)N1)[C@@H](C)O)C(=O)N1CCC[C@H]1C(=O)N[C@@H](CO)C(=O)N[C@@H](CO)C(=O)N[C@H](C(=O)N[C@@H](CC(N)=O)C(=O)N[C@H](C(=O)NCC(=O)N1CCC[C@H]1C(=O)N[C@@H](CCC(=O)O)C(=O)N[C@H](C(=O)N[C@@H](Cc1ccc(O)cc1)C(N)=O)[C@@H](C)O)C(C)C)[C@@H](C)O
